This is an account of results in article PMC4355918.

This series has as its target hnRNP C1 (UniProt P07910-2 1-293). In words: filter binding.

Consider AACUUAAUGUUUUUGCAUUGGUCUUUGAGUUA (structured_RNA) [MALAT1 2,577-U], for which the binding signal is approximately 4 fold stronger than N1.
